For assay [1], the target named is T1, mouse CD40 expressed on HEK293A cells (mouse, UniProt P27512 20-289).
T1 construct: also called HEK293A/mouseCD40
Description: FACS, HEK293A/mouseCD40 cells.

The target in assay [2] is T2, recombinant human CD40 (ECD)-his (human, UniProt P25942 21-193).
T2 construct: Bought protein; also called hCD40(ECD)-his; TNFRSF5
Description: SPR (Biacore 8K), hCD40(ECD)-his coupled to chip, antibody injected. As for the experimental part:
SPR assays were used to determine the binding affinity of the chimetic or humanized anti-CD40 antibodies to human CD40 with the BIAcore™ 8K instrument (GE Life Sciences). Briefly, 100-200 response units (RU) of human CD40 (ECD)-his protein (Sino Biological, CN, Cat #: 10774-H08H) were coupled to CM5 biosensor chips (Cat #: BR-1005-30, GE Life Sciences), followed by blocking of un-reacted groups with 1M ethanolamine. Serially diluted antibodies at concentrations ranging from […] were injected into the SPR running buffer (HBS-EP buffer, pH7.4, GE Life Sciences; US; Cat #: BR-1006-69) at 30 μL/minute. The binding capacity was calculated with the RUs of blank controls subtracted. The association rate (k_a) and dissociation rate (k_d) were calculated using the one-to-one Langmuir binding model (BIA Evaluation Software, GE Life Sciences). The equilibrium dissociation constant K_D was calculated as the k_d/k_a ratio.
For orientation: SPR reads the build-up and loss of mass on a sensor chip optically.

The target of assay [3] is T3, rhesus CD40 expressed on HEK293A cells (rhesus monkey, UniProt P25942 21-277 (human entry)).
T3 construct: also called HEK293A/rhesusCD40
T3 chain: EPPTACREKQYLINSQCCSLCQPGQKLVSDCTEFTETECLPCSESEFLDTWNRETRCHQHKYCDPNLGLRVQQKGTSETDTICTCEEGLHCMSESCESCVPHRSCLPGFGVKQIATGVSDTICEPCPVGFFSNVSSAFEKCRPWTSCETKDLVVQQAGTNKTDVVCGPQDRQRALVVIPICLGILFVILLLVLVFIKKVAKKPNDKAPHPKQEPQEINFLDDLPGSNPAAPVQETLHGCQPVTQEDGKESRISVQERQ
Description: FACS on HEK293A/rhesus CD40 cells, serially diluted antibody (Example 14, protocol of Example 5). As for the experimental part:
Example 5 Mouse Anti-CD40 Monoclonal Antibodies Bound to Human and Rhesus CD40 Expressed on HEK293A Cells To further determine whether anti-CD40 antibodies bound to human, monkey or mouse CD40 expressed on HEK293A cells, a cell-based binding assay by FACS was performed using the HEK293A cells stably overexpressing human, monkey or mouse CD40 as generated in Example 1, respectively. Briefly, 10^5 HEK293A cells were seeded into each well of the 96-well plates and serially diluted anti-CD40 antibodies were added to the plates. After incubated at 4° C. for 1 hour, plates were washed 3 times with PBST. Then, an APC coupled Goat Anti-Mouse IgG (BioLegen, US, Cat #: 405308) diluted 500× was added to the plates. After incubation at 4° C. for 1 hour, the plates were washed with PBS for 3 times and then cell fluorescence was monitored using a FACS machine (BD).
The chimeric and humanized anti-CD40 antibodies were further characterized for their ability of binding to HEK293A/humanCD40 cells and HEK293A/rhesus CD40 cells, following the protocols described in Example 5. They were also tested for their ability to activate CD40 signaling in HEK-Blue assay, and to promote dendritic cell maturation, following the protocols in Example 7 and Example 9, respectively, the dendritic cells collected form three healthy human donors. IL-12(p40) secretion by the dendritic cells was measured by using human IL12(p40) ELISA kit (BD, US, Cat #: 551116) following themanufactor's instruction.

From patent publication US10654939 (BEIJING MABWORKS BIOTECH, dated 2020) come the findings set out here.

A word on the Kd: it is a measure of binding affinity in units of concentration. In general, koff refers to the rate constant with which the complex falls apart. One may read the kon as a measure of how fast the partners come together. One may read the EC50 (read off the curve) as the concentration that produces a half-maximal response. A high value points to lower potency in that assay.

T1 sequence (P27512 20-289 limits assumed): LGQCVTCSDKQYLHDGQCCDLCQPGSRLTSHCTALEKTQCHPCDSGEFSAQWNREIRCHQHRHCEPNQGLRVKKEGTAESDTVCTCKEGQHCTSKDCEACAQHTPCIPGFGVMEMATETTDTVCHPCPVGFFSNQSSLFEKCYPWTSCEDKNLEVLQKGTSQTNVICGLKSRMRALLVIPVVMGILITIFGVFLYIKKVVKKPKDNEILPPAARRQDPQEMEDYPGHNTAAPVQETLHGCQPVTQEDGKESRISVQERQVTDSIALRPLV
T2 sequence (P25942 21-193): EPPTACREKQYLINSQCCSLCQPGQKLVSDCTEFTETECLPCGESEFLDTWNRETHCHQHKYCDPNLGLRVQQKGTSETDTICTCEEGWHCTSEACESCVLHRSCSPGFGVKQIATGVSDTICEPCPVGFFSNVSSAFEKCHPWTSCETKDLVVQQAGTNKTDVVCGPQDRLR

B1: chimeric 29A10 antibody (antibody, human IgG2, kappa, V domains shown)
VH: QVKLEQSGGGLVKPGGSLKLSCAASGFTFSHYYMYWVRQTPEKRLEWVATISDAGSYTYYSDSVKGRFTISRDNAKNNLYLQMSSLKSDDTAMYFCARTYYRGDGGYWFFDVWGAGTAVTVSS
VL: DIVITQSTSSLAVSVGEKVTMSCESSQSLLYSSNQKNYLAWYQQKPGQSPKLLIYWASTRESGVPDRFTASGSGTDFTLTISSVKAEDLAVYYCQQYYRSPLTFGAGTKLELKR
notes: Mouse variable regions with human IgG2/kappa constant regions
As to B1, the binding result in assay [1] is “no binding”.

B2: 13A2-VH2VL2 (antibody, human IgG2, kappa, V domains shown)
VH: QVQLQESGPGLVKPSDTLSLTCAVSGYSITTNYYWNWIRQPPGKGLEWMGYINYDGSNNYNPSLKNRITISVDTSKNQFSLKLSSVTAVDTAVYYCARLDYWGQGTLVTVSS
VL: DVVLTQSPLSLPVTLGQPASISCRSSQSLENSNGNTFLNWFQQRPGQSPRLLIYKVSNRFSGVPDRFSGSGSGTDFTLKISRVEAEDVGVYYCLQVTHVPFTFGQGTKLEIKR
notes: Humanized, human IgG2/kappa
Turning to B2, in assay [2], the dissociation constant Kd was 2.08 nM, the koff amounted to 0.00171 s⁻¹ and the on-rate (kon) turned out to be 823000 M⁻¹ s⁻¹. Also, the binding result in assay [3] is listed as “binds”.

B3: 13A2-VH0VL0 (antibody, human IgG2, kappa, V domains shown)
VH: QVQLQESGPGLVKPSDTLSLTCAVSGYSITTNYYWNWIRQPPGKGLEWIGYINYDGSNNYNPSLKNRVTMSVDTSKNQFSLKLSSVTAVDTAVYYCARLDYWGQGTLVTVSS
VL: DVVMTQSPLSLPVTLGQPASISCRSSQSLENSNGNTFLNWFQQRPGQSPRRLIYKVSNRFSGVPDRFSGSGSGTDFTLKISRVEAEDVGVYYCLQVTHVPFTFGQGTKLEIKR
notes: Humanized, human IgG2/kappa
On to B3, for which, in assay [2], the dissociation constant (Kd) was 28.8 nM, the koff was 0.0114 s⁻¹ and the on-rate constant (kon) turned out to be 396000 M⁻¹ s⁻¹. Also, the binding result in assay [3] is given as “binds”.

B4: 7B4-VH3VL3 (antibody, human IgG2, V domains shown)
VH: QVQLQESGPGLVKPSDTLSLTCAVSGYSITTNYYWNWIRQPPGNKLEWMGYIKYDGSNNYNPSLKNRITISVDTSKNQFSLKLSSVTAVDTAVYYCARLDYWGQGTLVTVSS
VL: DVVLTQSPLSLPVTLGQPASISCRSSQSLENSNGNTFLNWFQQRPGQSPRLLIYKVSNRFSGVPDRFSGSGSGTDFTLKISRVEAEDVGVYFCLQVTHVPFTFGSGTKLEIKR
notes: Humanized, human IgG2/kappa
Consider B4, for which, in assay [2], the dissociation constant (Kd) turned out to be 2.99 nM, the koff came out at 0.00488 s⁻¹ and the on-rate (kon) is 2.13e+06 M⁻¹ s⁻¹. Besides, in assay [3], the “EC50 (read off the curve)” value was around 0.2 µg/mL.

B5: 7B4-VH0VL0 (antibody, human IgG2, kappa, V domains shown)
VH: QVQLQESGPGLVKPSDTLSLTCAVSGYSITTNYYWNWIRQPPGKGLEWIGYIKYDGSNNYNPSLKNRVTMSVDTSKNQFSLKLSSVTAVDTAVYYCARLDYWGQGTLVTVSS
VL: DVVMTQSPLSLPVTLGQPASISCRSSQSLENSNGNTFLNWFQQRPGQSPRRLIYKVSNRFSGVPDRFSGSGSGTDFTLKISRVEAEDVGVYYCLQVTHVPFTFGQGTKLEIKR
notes: Humanized, human IgG2/kappa
Consider B5, for which, in assay [2], the dissociation constant Kd worked out at 2.47 nM, the koff was 0.0068 s⁻¹ and the kon came out at 2.75e+06 M⁻¹ s⁻¹. The “EC50 (read off the curve)” value in assay [3] is around 0.2 µg/mL.

B6: 13A2-VH2VL3 (antibody, human IgG2, kappa, V domains shown)
VH: QVQLQESGPGLVKPSDTLSLTCAVSGYSITTNYYWNWIRQPPGKGLEWMGYINYDGSNNYNPSLKNRITISVDTSKNQFSLKLSSVTAVDTAVYYCARLDYWGQGTLVTVSS
VL: DVVLTQSPLSLPVTLGQPASISCRSSQSLENSNGNTFLNWFQQRPGQSPRLLIYKVSNRFSGVPDRFSGSGSGTDFTLKISRVEAEDVGVYFCLQVTHVPFTFGSGTKLEIKR
notes: Humanized, human IgG2/kappa
With B6, in assay [2], the Kd came out at 3.55 nM, the dissociation rate constant (koff) was determined as 0.00261 s⁻¹ and the kon was 735000 M⁻¹ s⁻¹. Moreover, the binding result in assay [3] is listed as “binds”.

B7: 7B4-VH3VL2 (antibody, human IgG2, V domains shown)
VH: QVQLQESGPGLVKPSDTLSLTCAVSGYSITTNYYWNWIRQPPGNKLEWMGYIKYDGSNNYNPSLKNRITISVDTSKNQFSLKLSSVTAVDTAVYYCARLDYWGQGTLVTVSS
VL: DVVLTQSPLSLPVTLGQPASISCRSSQSLENSNGNTFLNWFQQRPGQSPRLLIYKVSNRFSGVPDRFSGSGSGTDFTLKISRVEAEDVGVYYCLQVTHVPFTFGQGTKLEIKR
notes: Humanized, human IgG2/kappa
B7: in assay [2], the equilibrium dissociation constant (Kd) turned out to be 4.2 nM, the off-rate (koff) was found to be 0.00615 s⁻¹ and the association rate constant (kon) was 1.46e+06 M⁻¹ s⁻¹. Moreover, in assay [3], the concentration for a half-maximal effect (EC50 (read off the curve)) was around 0.2 µg/mL.

B8: 7B4-VH2VL3 (antibody, human IgG2, kappa, V domains shown)
VH: QVQLQESGPGLVKPSDTLSLTCAVSGYSITTNYYWNWIRQPPGKGLEWMGYIKYDGSNNYNPSLKNRITISVDTSKNQFSLKLSSVTAVDTAVYYCARLDYWGQGTLVTVSS
VL: DVVLTQSPLSLPVTLGQPASISCRSSQSLENSNGNTFLNWFQQRPGQSPRLLIYKVSNRFSGVPDRFSGSGSGTDFTLKISRVEAEDVGVYFCLQVTHVPFTFGSGTKLEIKR
notes: Humanized, human IgG2/kappa
Consider B8, for which, in assay [2], the Kd was 3.6 nM, the koff was 0.00639 s⁻¹ and the kon came out at 1.78e+06 M⁻¹ s⁻¹. The “EC50 (read off the curve)” value in assay [3] was around 0.2 µg/mL.

B9: chimeric 77D9 antibody (antibody, human IgG2, kappa, V domains shown)
VH: QVKLEESGGGLVKPGGSLKLSCAASGFTFRNYAMSWVRQSPGERLEWVAEVSGSGYYTYYPDTVTGRFTISRDNANNTLYLEVSSLRSEDTAMYYCTSRAYWGQGTLVTVSA
VL: IVMTQSPTLSLPVSLGDQASISCRSSQSIVLTNGNTYLEWYLQRPGQSPKLLIYKVSNRFSGVPDRFSGSGSGTDFTLKISRVEAEDLGVYYCFQGSHVPYTFGGGTKLEIKR
notes: as for B1
On to B9, for which the binding result in assay [1] is “no binding”.

B10: chimeric 92F6 antibody (antibody, human IgG2, kappa, V domains shown)
VH: QVQLEQSGAEVVKPGASVKVSCTASGFNIKDTYMHWVKQRPEQGLEWIGRIDPANGNTNYDPKFQGKATITADTSSNTGYLQLSSLTSEDTAVYYCSRWGYDWYFDVWGAGTSVTVSS
VL: DIVITQSTAIMSASPGEKVTITCSASSSVSYIHWFQQKPGTSPKLWIYTTANLASGVPARFSGSGSGTSYSLTISRMEAEDAATYYCQQRSNYPFTFGSGTKLEIKR
notes: as for B1
Take B10: the binding result in assay [1] is “no binding”.

B11: chimeric 50F6 antibody (antibody, human IgG2, kappa, V domains shown)
VH: QVQLEQSGDDLVKPGASVKLSCKASGYTFTTYWINWIKQRPGQGLEWIGRISPGSGSTHYNEMFKGKATLTVDTSSSTAYIQLSSLSSEDSAVYFCTRNDYWGQGTTLTVSS
VL: DIVLTQSPLSLPVSLGDQASISCRSSQSIVNSNGNTYLEWYLQKPGQSPKLLIYKVSNRFSGVPDRFSGSGSGTDFTLKISRVEAEDLGVYYCFQGSHVPLTFGAGTKLELKR
notes: as for B1
Take B11: the binding result in assay [1] is listed as “no binding”.

B12: chimeric 142F7 antibody (antibody, human IgG2, kappa, V domains shown)
VH: EVQLEQSGAELVRPGTSVKVSCKASGYAFTNYLIEWGIQRPGQGLEWIGVINPGTGGTNYNEKFKDKATLTTDKSSSTAYMQLSSLTSDDSAVYFCARGGSGFAYWGQGTLVTVSA
VL: DIVLTQTTSSLSASLGDRVTISCRASQDINNYLNWYQQKPDGTVKLLIYYTSRLHSGVPSRFSGSGSGTDYSLTISNLEQEDIATYFCQQGNTLPWTFGGGTKLEIKR
notes: as for B1
For B12, in assay [1], the binding result is reported as “no binding”.

B13: chimeric 7B4 antibody (antibody, human IgG2, kappa, V domains shown)
VH: EVQLQESGPGLVKPSQSLSLTCSVTGYSITTNYYWNWIRQFPGNKLEWMGYIKYDGSNNYNPSLKNRISITRDTSKNQFFLKLNSVTTEDTATYYCARLDYWGQGTSVTVSS
VL: DIVLTQSPLSLPVSLGDQASISCRSSQSLENSNGNTFLNWFLQKPGQSPQLLIYKVSNRFSGVLDRFSGTGSGTDFTLTISRVEAEDLGVYFCLQVTHVPFTFGSGTKLEIKR
notes: as for B1
Consider B13, for which the binding result in assay [1] was “no binding”. Further, in assay [2], the Kd was determined as 3.6 nM, the koff amounted to 0.0036 s⁻¹ and the on-rate constant (kon) amounted to 1e+06 M⁻¹ s⁻¹.

B14: chimeric 16A6 antibody (antibody, human IgG2, kappa, V domains shown)
VH: EVQLEQSGPGLVKPSQSLSLTCSVTGYSITTNYHWNWIRQFPGNKLEWMGYIKYDGSNNYNPSLKNRISITRDTSKNQFFLKLNSVTTEDTATYYCARLDYWGQGTSVTVSS
VL: DIVLTQSTLSLSVSLGDQASISCRSSQSLENSNGNTFLNWFLQKPGQSPQLLIYKVSNRFSGVLDRFSGTGSGTDLTLTISRVEAEDLGVYFCLQVTHVPFTFGSGTKLEIKR
notes: as for B1
For B14, the binding result in assay [1] is listed as “no binding”.
